# Measured values reported in the DeepSol protein solubility set.
# Assay: soluble on expression in E. coli; label from the status in PepcDB or PDB records
row,Sequence,soluble on expression in E. coli
1,MCGISGEFRFDNQAADLAAVERITHHLAPRGPDAWGFHAQGPIALGHRRLKIMDLAEASGQPMIDPDLGLAMVFNGAIYNYPELRGELESLGYRFFSGGDTEVLLKGYHAWGADLLPRLNGMFAFAVWERDRQRLFLARDRLGIKPLYYSLDRSRLRFASSLPALLKGGDIASDLDPQALNFYLNFHAVVPAPHTLLEGVKKLPPATWMSVDLDGSCEQRTWWTLDYGPRPDERELTLDDWQERVLDGLREAVAIRQRAAREVGVLLSGGVDSSLLVGLLHEAGVDNLLTFSIGFEDAGGERGDEFQYSDLIAERYHTRHHRLRIGEHEVIEQLPAAFRAMSEPMVSHDCIAFYLLAREVSKHCKVVQSGQGADELFAGYHWYPKVDGADDAFAAYRAAFFDRDHEEYLATVGERFRVEDVAGRFVRDHFASPGAEAAVDKALRLDSTIMLVDDPVKRVDNMTMAWGLEARVPFLDYRLAELSARIPARFKLGDGGKQVLKGAARKVIPSEVIDRPKGYFPVPGLKHLQGRTREWVRELLLDPSQDRGLFQPAIFDRLLSDPDGDLTPLRG,not soluble
2,MAHHHHHHMNRWRPFSKVRHFSGLTKLTNVREHQDEIISCIEKVKVVNPLVHCITNRVTTEKVANSLLAFGSSPAMIDNPKEVEQFAEIASCTYFNLGLHTSQVENIHVLDKMRQEKKKEEFILVIDPIAVGATQYRTNLIKDILVKCKPNVIKGNVAEIFYLDKGEFFGKGVDSNSSSSHTPNDIIASARNVALKYNCAVVVTSKADIIVSPCSKFVAQINCDLKILTKITGSGCSVGALCAAATSVIPQNPFIACTAATLIYKLAAFKAYQKETGPGTLSHQIIDNIYFYSNHPHFMNLQLVDVYAVS,soluble
3,SQDPSGDKVCRAGGEEDGEDGQHTSRVHDTEADPHHTEASSHRTEGSSHLTETSSRPSEAENGHDNSPHVNRAQDVGTQASPQGSLNSRVPVEARVVVEEAAIAPQGEQAPIIPGPSGDAATTAGSRLLEFSVTVPFRTAVEANIACRTLASNIQQQQVMVQQEFTVNDTILTVRWTTEDPVLFRTSINAFLDQLSLVVRNIPRPVFMAVFKQGRGRNN,soluble
4,MSLQTLSIQHGTLVTMDQYRRVLGDSWVHVQDGRIVALGVHAESVPPPADRVIDARGKVVLPGFINAHTHVNQILLRGGPSHGRQLYDWLFNVLYPGQKAMRPEDVAVAVRLYCAEAVRSGITTINDNADSAIYPGNIEAAMAVYGEVGVRVVYARMFFDRMDGRIQGYVDALKARSPQVELCSIMEETAVAKDRITALSDQYHGTAGGRISVWPAPAITPAVTVEGMRWAQAFARDRAVMWTLHMAESDHDERLHWMSPAEYMECYGLLDERLQVAHCVYFDRKDVRLLHRHNVKVASQVVSNAYLGSGVAPVPEMVERGMAVGIGTDDGNCNDSVNMIGDMKFMAHIHRAVHRDADVLTPEKILEMATIDGARSLGMDHEIGSIETGKRADLILLDLRHPQTTPHHHLAATIVFQAYGNEVDTVLIDGNVVMENRRLSFLPPERELAFLEEAQSRATAILQRANMVANPAWRSLEGHHHHHH,soluble
5,MVNLANVLTNATAATLSAWSNTVPLETYFHFDEASGFGDYYLNVSVIWMNETLYETRIVPAIINVREWLDHMEANDPSPSVTNPYETSGYYAFSTVVPVLMGNMKVA,not soluble
6,MSEAVKLDVGGTIFKTSKSTLTKFDGFFRTMLGSGIGLNVDESGCIFIDRSPKHFDLILNFMRDGCLALPKNERDLTELMAEAQYYLLDGLIDRLASSNWSVESDEKTINVAKRLPILENNSQFLQVLCNQEKPILLIVVMASRDHFFPNMSIPDGFNAYKFVEKYSHQFHIYFMSTFVAQFLTIRVKRNNKIVYLKRAAYVSSGQQE,not soluble
7,MGEQQLDCALDLMRRLPPQHCDKNLTDLIDLCPHLVDDLLSTIDQPLKIAADRETGKQYLLCDYNRDGDSYRSPWSNTYDPPLEDGQLPSEKRRKMEIEANAAFESYRDLYFEGGVSSVYFWDLDNGGFAGIVLIKKEGDGAKNITGCWDSIHVIEITERARQAHYKLTSTIMLWLQTNKSSSGVMNLGGSLTRQHEMDAPINDQNTHLANMGRMIEDQESKMRLTINEIYFGKTKKVMSDLRSTEKQSELEKQDEIVRELNNAMANRGN,soluble
8,FNCNKREGPCSQRSLCECDPNLQLGRHSDQLWHYNLRTNRCERGGYRDNCNSHSSSGACVMACERIHHHHHH,soluble
9,MHSDELLVEILVEELPAQALLNEYKEMPKKLHALFNKRALEVGNIEIFYTPRRLCLLIKDFPLLTQETKEEFFGPPVKIACNHQDKTQGLNALGLGFYQKLGLKDHQYFQTAFKNNKEVLYHAKIHEKEPTKDLIMPIVLEFLEGLNFGKSMRWGNVEKSFIRPIHNICVLFNGEDFSGIEVKEYGFKTKQATKVHRQEGFDFIQVDSPKAYFEVLEKNHVILDPKKREAKILQEIKELETKHHIIVETDRDLLDEVVAITEYPSALLGEFDKAFLKLPSEIIITSMKENQRYFATFCQKSQEESPTLHNGFIVVSNAINKDKQKIILGNQKVLKARLSDAVFFYENDLKKPLDNAPLESVVFVQGLGTLKDKMERESIIAQYLTQKYISSLNMPLEKALELVKRAVQIAKADLLSEVVYEFSELQGIMGYYYALKQNENELVALSVKEQYLPASENAPLPSSVFSSIVALSLKLDSLFSLFSVGKIPSGSKDPFALRRLSFGLLKIIAHYGLEFDLKADLKNLFQKVGVYQSFDLEILEKFLLERFHNLIDCNPSIIRSVLNTNERDIVK,not soluble
10,MFREESRSVPVEEGEVYDVTIQDIARQGDGIARIEGFVIFVPGTKVGDEVRIKVERVLPKFAFASVVE,soluble
11,MMKHVFQKGKDTSKPVLLLLHGTGGNELDLLPLAEIVDSEASVLSVRGNVLENGMPRFFRRLAEGIFDEEDLIFRTKELNEFLDEAAKEYKFDRNNIVAIGYSNGANIAASLLFHYENALKGAVLHHPMVPRRGMQLANLAGKSVFIAAGTNDPICSSAESEELKVLLENANANVTMHWENRGHQLTMGEVEKAKEWYDKAF,soluble
12,VRGLLRVVGVRIEPGDHMLAIRDEIAGAIALGHSQGAVEKEDRDRLLGALDLSERTVEEIMRHRSQIEMIDADKPSAEVIAQVLASPHTRIPLYRGDHENILGIIHAKDLLREVSRLMRTGSTGALDELDILAVAMKPYFVPETTPLDEQMRQFLKRRTHFALVVDEYGALKGLITLEDIIEEIVGEINDEFDIAQEMTLKRADTGDYLVDGAMTI,not soluble
13,MSSRLARFALSGYRIAGIAAYPFARPYLSYRAAKGKEDKRRRLERFGYASAERPRGPLVWFHAASVGETLALIPLIREIRKRDIFVLLTTGTVTSAELTRTRLGDDVIHQYVPLDIKIAVNRFLTYWAPDAAITAESEIWPVTMMELERRHIPQIRVNARLSDRSFDRWKARHDIAESLFSKLALVVAQSDLDAERFRDLGSWPVVISGNLKGDTDPPPCDEALLESYRKQVGNRKTWAAISTFDGEEKAAATVHAAIKSRNGQLTIIVPRHPERGDDVEAMLKGMNLSVARRSRNDVITPGTDIFLGDSIGEMGLYLRLTELAFVGRSLTAEGGQNPLEPAMLGCAVLSGAHVQNFREAYQKLIRAGGGRIIRDVEMLAKAVHYLLVNDNERYKMIDAGNRVIQDMRGALSSTVKALEPYINPLTVSAKLQPRSAIGSWLEHHHHHH,not soluble
14,MSNKEYRPTLAQLRTFATIAENKHFGTAAAKLSISQPSLSQALAALENGLGVQLIERSTRRVIVTPAGEMLLPYAKATLDAADAFLAHAH,soluble
15,PFINIKLVPENGGPTNEQKQQLIEGVSDLMVKVLNKNKASIVVIIDEVDSNNYGLGGESVHHLRQKN,soluble
16,MGSDKIHHHHHHMNLPTASRLQFTPDLNICRILNGMWQVSGAHGRINPQAAIETMFKYLDAGFTTWDLADHYGPAEDFIGEFRCQLIDTRGKDALSKVQAFTKWVPRPGKMTKKLVEENIDISLRRMNVESLDLMQFHWWEYQDKNYLDALKYMAELQTEGKIKHLGLTNFDTENLKLITEAGIKIVSNQVQFSLIDRRPEVNMAEFCQQHDIKLFTYGTLCGSLLSENYLGKPEPRGSDLSTASLKKYKNMIDAWGGWQLFQELLAILKEIANKHKVSISNVAVRYILDQPTVGGVIVGARLGVSEHIEDNAKVFSFSLDADDRDRISAVSRQSRDLYQLIGDCGDEYRR,not soluble
17,MRIPFPSIKYPLIAILRGLKPEETEGVVGALIETGFRAIEIPLNSPDPFRSIEIAARMAPADCLIGAGTVLSVEDVASLDAAGGKLMVSPNADAEVITAAREKGMVTMPGVLTPTEALVAAKAGATGLKFFPASIIGPSGINAIRTILPKELIIAAVGGVSDKNFSDYTSAGIRAFGLGTSLYKPGMTAAEVRERATVTLAAYDAAIGG,not soluble
18,MAHHHHHHMENHKDDAVLLKHGWCEMLKGGVIMDVKSVEQAKIAEEAGAIGVMVLENIPSELRNKEGVARSVDPSKVEEIKKCVSINVLAKVRIGHFVEAQILEELKIDMIDESEVLTIADEMHHIDKHKFKTPFVCGCTNLGEALRRISEGASMIRTKGEAGTGNIIEAIKHIRTVNNEIKYLCSLSDSEVYHFAKKINAPIDLVLLTKKLKRLPVVNFAAGGVATPADAAMCMQLGMDGVFVGSGIFESENPRKMAASIVSAVSNFNNPKILLDVSMNLGKAMCGSTRVSDKWKNKNEEHTKFLTPQ,not soluble
19,GMKLLLTRPEGKNAAMASALDALAIPYLVEPLLSVEAAAVTQAQLDELSRADILIFISTSAVSFATPWLKDQWPKATYYAVGDATADALALQGITAERSPADSQATEGLLTLPSLEQVSGKQIVIVRGKGGREAMADGLRLRGANVSYLEVYQRACPPLDAPASVSRWQSFGIDTIVVTSGEVLENLINLVPKDSFAWLRDCHIIVPSARVETQARKKGLRRVTNAGAANQAAVLDALGM,soluble
20,MSAFTPASEVLLRHSDDFEQSRILFAGDLQDDLPARLDTAASRAHTQQFHHWQVLSRQMGDNARFSLVATADDVADCDTLIYYWPKNKPEAQFQLMNLLSLLPVGTDIFVVGENRSGVRSAEQMLADYAPLNKVDSARRCGLYFGRLEKQPVFDAEKFWGEYSVDGLTVKTLPGVFSRDGLDVGSQLLLSTLTPHTKGKVLDVGCGAGVLSVAFARHSPKIRLTLCDVSAPAVEASRATLAANGVEGEVFASNVFSEVKGRFDMIISNPPFHDGMQTSLDAAQTLIRGAVRHLNSGGELRIVANAFLPYPDVLDETFGFHEVIAQTGRFKVYRAIMTRQAKKG,soluble
21,MLVNFIKNFIPHRFYSSKTEIPVVRLHGAIIDSSSSIARTLSLGRCANLLDKAFAYKKAPAVAVIINSPGGSPVQSRLIFKRIRDLAEEKKKQVLMFIEDIAASGGYMIACAGDEIFADPSSIVGSIGVVSASFGFPELLKKIGIERRVYTAGKNKVTLDPFQPEKKTDIEHLKSLQLEVHKTFIDLVKERRAEKLSNDPNIFTGMFWSGKKSVELGLIDGLNDVRSVIKERFGDDTKLRLIIPPKSLFGPKTPSGVTAHAVHTAIDSALMVAQERALWQYYGLLEHHHHHH,soluble
22,MSIKSDSRHLYLQVIDRIKRDIETGVYKEKQKLPSEFELAKQLGVSRATLREALRVLEEENIIIRRHGVGTFVNARPLFTSGIEQLSSVTDMIRQAGRKPGTIFLSSSIQQPTEDDMRRFQCRPDENLLLIERVRTADGEPVVYCLDKILCKYLPKGISYEHESLFENLHNQTHRDIAYAVARIVPLGYHEKVSPILQCDPETALLVLKQMHFDKNDEPIFYSVNYFRSDKFSFHVMRKRFSF,not soluble
